The results in this text go back to the nanobody polyreactivity screen of Harvey et al. (2022).

The series can be described thus: yeast display, Sf9 membrane polyspecificity reagent, FACS + sequencing; frameworks hold sequencing errors. Put shortly:
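Galactose induction of a Saccharomyces cerevisiae BJ5465 synthetic nanobody display library ran 36–48 hours. The cells were then stained for 1 hour at 4 °C with 10% biotinylated, detergent-solubilized Sf9 membrane reagent, pulled down on streptavidin microbeads and FACS-sorted into low and high (top ~1%) gates on expression and reagent-binding fluorescence. Labels for polyreactivity follow the gate of origin.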
In the case of “QVQLVESGGGLVQAGGSLRLSCAASGITFYLYAMGWYRQAPGKERELVAAISSSGGSTYYADSVKGRFTISRDNAKNTVYLQMNSLKPEDTAVYYCNARRRTVPYRYYYWGQGTQVTVSS”, the “polyreactivity (PSR sort gate)” value was “high polyreactivity”. With “QVQLVESGGGLVQAGGSLRLSCAASGITFYPNDMGWYRQAPGKERELVAAITTNDGDTYYADSVKGRFTISRDNAKNTVYVQMNSLKPEDTAVYYCATGIDKGPVWVTYSTDYDYWGQGTQVTVSS” the entry was “low polyreactivity”; with “QVQLVESGGGLVQAGGSLRLSCAASGITFYPYAMGWYRQAPGKERELVAAITLSTGTTYYADSVKGRFTISRDNAKNTVYLQMNSLKPEDTAVYYCAVEGYWYAGWYAMDYWGQGTQVTVSS”, “low polyreactivity”; with “QVQLVESGGGLVQAGGSLRLSCAASGITFYRKAMGRYRQAPGKERELVAAISRRGGITRYADSVKGRFTISRDNAKNTVYLQMNSLKPEDTAVYYCATVRYRWYSFQAERYYWGQGTQVTVSS”, “high polyreactivity”. The result for “QVQLVESGGGLVQAGGSLRLSCAASGITFYRYALGWYRQAPGKEREFVAAISRSGVSTYYADSVKGRFTISRDNAKNTVYLQMNSLKPEDTAVYYCNKVYYPGFGYEGDYWGQGTQVTVSS” reads “high polyreactivity”.

For the sequence “QVQLVESGGGLVQAGGSLRLSCAASGITFYRYAMGWYRQAPGKEREFVAAINYGGSSTRYADSVKGRFTISRDNAKNTVYLQMNCLKPEDTAVYYCAVEKRYPRRRYDYWGQGTQVTVSS”, the “polyreactivity (PSR sort gate)” value is “low polyreactivity”. Turning to “QVQLVESGGGLVQAGGSLRLSCAASGITFYRYAMGWYRQAPGKERELVAGITRSGGSTYYADSVKGRFTISRDNAKNTVYLQMNSLKPEDTAVYYCAARIYSFRTKGGYGYWGQGTQVTVSS”, the “polyreactivity (PSR sort gate)” value was “high polyreactivity”. The result for “QVQLVESGGGLVQAGGSLRLSCAASGITFYRYAMGWYRQAPGKERELVASISSRGSSTYYADSVKGRFTISRDNAKNTVYLQMNSLKPEDTAVYYCAKSRGSRGFVASTYNYWGQGTQVTVSS” reads “high polyreactivity”; that for “QVQLVESGGGLVQAGGSLRLSCAASGITFYRYAMGWYRQEPGKERELVAAISRSGGSTYYADSVKGRFTISRDNAKNTVYLQMNSLKPQDTEVYYCADYILGNRVGYDYWGQGTQVTVSS”, “high polyreactivity”. Regarding “QVQLVESGGGLVQAGGSLRLSCAASGITFYRYDMVWYRQAPGKERELVAAISRSGGSTYYADSVKGRFTISRDNAKNTVYLQMNSLKPEDSAVYYCAAYILGNRDGYDYWGQGTQVTVSS”, the “polyreactivity (PSR sort gate)” value was “high polyreactivity”.

On to “QVQLVESGGGLVQAGGSLRLSCAASGITFYRYFMGWYRPAPGKERELVAAISRGGGSTYYADSVKGRFTISRDNAKNTVYLQMNSLKPEDTAVYYCNARYLYRHDYWGQGTQVTVSS”, for which the “polyreactivity (PSR sort gate)” value is “high polyreactivity”.

Consider “QVQLVESGGGLVQAGGSLRLSCAASGITFYRYTMGWYRQAPGKERELVAAIRSAGSTYYADSVKGRFTISRDNAKNTVYLQMNSLKPEDTAVYYCAATYYRYNVPYYGGNGGDYWGQGTQVTVSS”, for which the “polyreactivity (PSR sort gate)” value is “high polyreactivity”. With “QVQLVESGGGLVQAGGSLRLSCAASGITFYRYVMGWYRQAPGKERELVAAITSRGGSTSYADSVKGRFTISRDNAKNTVYLQMNSLKPEDTAVYYCAAVYRRDYDYWGQGTQVTVSS” the entry was “high polyreactivity”; with “QVQLVESGGGLVQAGGSLRLSCAASGITFYRYVMGWYRQAPGKERELVAAITTGDSTYYADSVKGRFTISRDNAKNTVYLLMNSLKPEDTAVYYCAAVYYSALANYDYWGQGTQVTVSS”, “low polyreactivity”. “QVQLVESGGGLVQAGGSLRLSCAASGITFYSNAMGWYRQAPGKERELVAAISYRGGSTYYADSVKGRFTISRDNAKNTVYLQMNSLKPEDTAVYYCNKEVDWGWGRISYDSWGQGTQVTVSS”: the “polyreactivity (PSR sort gate)” value is reported as “low polyreactivity”. Consider “QVQLVESGGGLVQAGGSLRLSCAASGITFYSYTMGWYIQAPGKERELVAAISDNGGRTFYADSVKGRFTISRDNAKNTVYLQMNSLKPEDTAVYYCAADSYWYRFLKSRYDYWGQGTQVTVSS”, for which the “polyreactivity (PSR sort gate)” value is given as “low polyreactivity”. Regarding “QVQLVESGGGLVQAGGSLRLSCAASGITFYSYTMGWYRQAPGKERELVAAISDNGGRTFYADSVKGRFTISRDNAKNTVYLQMNSLKPEDTAVDYCAADYSYYTSFRYDYWGQGTQVTVSS”, the “polyreactivity (PSR sort gate)” value was “low polyreactivity”. With “QVQLVESGGGLVQAGGSLRLSCAASGITFYTYTMGWYRQAPGKERELVAAISRSSGRTYYADSVKGRFTISRDNAKNTVYLQMNSLKPEDTAVYYCAAYAVESYKYDYWGQGTQVTVSS” the entry was “high polyreactivity”.

On to “QVQLVESGGGLVQAGGSLRLSCAASGITFYVNAMGWYRKAPGKERELVAGITLSGDSTYYADSVKGRFTISRDNAKNTVYLQMNSLKPEDTAVYYCAVEGGLWWPYTYYYWGQGTQVTVSS”, for which the “polyreactivity (PSR sort gate)” value is recorded as “high polyreactivity”.

For “QVQLVESGGGLVQAGGSLRLSCAASGITFYVYAMGWYRPAPGKVRELVAAINYDSGSTYYADSVKGRFTISRDNAKNTVYLQMNSLKPEDTAVYYCATDGVNPFYAYDYWGQGTQVTVSS”, the “polyreactivity (PSR sort gate)” value is “low polyreactivity”.

“QVQLVESGGGLVQAGGSLRLSCAASGITFYWYTMGWYRQAPGKERELVADIEGDGGSTYYADSVKGRFTISRDNAKNTVYLQMNSLKPEDTAVYYCAAQVWPWGYDYWGQGTQVTVSS”: the “polyreactivity (PSR sort gate)” value is reported as “high polyreactivity”.

Regarding “QVQLVESGGGLVQAGGSLRLSCAASGITFYYNAMGWYRQAPGKERELVAAIRSAGSTYYADSVKGRFTISRDNAKNTVYLQMNSLKPEDTAVYYCAAEDGTTDQVRVYWIMDYWGQGTQVTVSS”, the “polyreactivity (PSR sort gate)” value was “low polyreactivity”. The result for “QVQLVESGGGLVQAGGSLRLSCAASGITFYYYAMGWYRQAPGKERELVAAISDNGSRTYYADSVKGRFTISRDNAKNTVYLQMNSLKPEDTAVYYCAAEGSYGYDYWGQGTQVTVSS” reads “high polyreactivity”.

In the case of “QVQLVESGGGLVQAGGSLRLSCAASGITFYYYAMGWYRQAPGKERELVAAISRSGGRTYYADSVKGRFTISRDNAKNTVYLQMNSLNPEDTAVYYCAAVRYQGGDSSIEYDYWGQGTQVTLSS”, the “polyreactivity (PSR sort gate)” value was “high polyreactivity”. Regarding “QVQLVESGGGLVQAGGSLRLSCAASGITFYYYTMGWYRQAPGKERELVAGITYRGGRTYYADSVKGRFTISRDNAKNTVYLQMNSLKPEDTAVYYCAADDLGWWFYSGGEDYYYWGQGTQVTVSS”, the “polyreactivity (PSR sort gate)” value is “low polyreactivity”. For the sequence “QVQLVESGGGLVQAGGSLRLSCAASGITIFGYAMGWYRQAPGKERELVAAINYSGDSTYYADSVKGRFTISRDNAKNTVYLQMNSVKPEDTAVYYCAATRSYRQPGPKYKSYYYLYYYWGQGTQVTVSS”, the “polyreactivity (PSR sort gate)” value was “high polyreactivity”. With “QVQLVESGGGLVQAGGSLRLSCAASGITIFRYALGWSRQAPGKERELVAAISSSGGSTYYADSVKGRFTISRDNAKNTVYLQMNSLKPEDTAVYYCAAAHGYRYYWGQGTQVTVSS” the entry was “high polyreactivity”.

Consider “QVQLVESGGGLVQAGGSLRLSCAASGITIGRYAMGWYRPAPGKERELVAAISSTGGRTYYADSVKGRFTISRDNAKNTVYLQMNSLKPEDTAVYYCAAGRRRPFGRNDYWGQGTQVTVSS”, for which the “polyreactivity (PSR sort gate)” value is listed as “high polyreactivity”. Regarding “QVQLVESGGGLVQAGGSLRLSCAASGITIKRYAIGWYRQAPGKEREFVATISQSGTSTYYADSVKGRFTISRDNAMNTVYLQMNSLKPEDTAVYYCAADYIGYWYGYYSWGQGTQVTVSS”, the “polyreactivity (PSR sort gate)” value is “low polyreactivity”. “QVQLVESGGGLVQAGGSLRLSCAASGITIKRYAMVWYSQAHGKEREFVATISQSGTSTYYADSVKGRFTISRDNAKNTVYLQMNSLKPEDTAVYYCAADYIGYWYGYYSWGQGTKVTVSS”: the “polyreactivity (PSR sort gate)” value was “low polyreactivity”. With “QVQLVESGGGLVQAGGSLRLSCAASGITIPVYMGWYRQPPGKERELVASISTIGGTTYYADSVKGRFTITRDNAKNTVYLQMNRLKPEDSAVYYCAADHPWSWYDYWGQGTQVTVSW” the entry was “low polyreactivity”; with “QVQLVESGGGLVQAGGSLRLSCAASGITIRRYAMGWYRQAPGKERELVAAITYSGGGSTYYADSVKGRFTISRDNAKNTVYLQMNSLKPEDTAVYYCAAGWYPWGYYSGYISYEYWGQGTQVTVSS”, “high polyreactivity”; with “QVQLVESGGGLVQAGGSLRLSCAASGITIRYNAMGWYRQAPGKERELVAAISRGGDRTYYADSVKGRFTISRDNAKNTVYLQMNSLKPEDTAVYYCAADWSEKYEYWGQGTQVTVSS”, “high polyreactivity”. The result for “QVQLVESGGGLVQAGGSLRLSCAASGITISPNAMGWYRQAPGKERELVAAIDWSGDRTYYADSVKGRFTISRDNAKNTVYLQINSLKPEDTAVYYCNVVRRSPGDYSYYYWGQGTQVTVSS” reads “low polyreactivity”; that for “QVQLVESGGGLVQAGGSLRLSCAASGITISVNDMGWYRQAPGKERELVAAISSGDSTNYADSVKGRFTISRDNAKNTVYLQMNSLKPEDTAVYYCAALEGSLTGWQTYDYWGQGTQVSVSS”, “low polyreactivity”; that for “QVQLVESGGGLVQAGGSLRLSCAASGITIVNYVMGWYRQAPGKERELVAAISIGGGTYYADSVKGRFTISRDNAKNTVYLQRNSLKPEDTAVYYCNATFGGLSFYIGVYVTGYDYWGQGTQVTVSS”, “low polyreactivity”. Consider “QVQLVESGGGLVQAGGSLRLSCAASGITIWWYAMGWYRQAPGKERELLAAITGGGSTNYADSVKGRFTISRDNAKNTVYLQMNSLKPEDTAVYYCAATGSPARNWDTVTGYYYWGQGTQVTVSS”, for which the “polyreactivity (PSR sort gate)” value is “low polyreactivity”. As for “QVQLVESGGGLVQAGGSLRLSCAASGITIYAYAMGWSRQAPGKERELVAAINWSGGRTFYADSVKGRFTISRDNAKNTDYLQMNSLKPEDTAVYYCAAAYTRSYSWARGYDYWGQGTQVTVSS”, the “polyreactivity (PSR sort gate)” value is on record as “high polyreactivity”. The result for “QVQLVESGGGLVQAGGSLRLSCAASGITIYRYAMGWYRQAPGKERELVATITWSGGSTYYADSVKGRFTISRDNAKNTVYLQMNSLKPEDTALYYCAAYSPYIYQAYRYDYWGQGTQVTVSS” reads “low polyreactivity”; that for “QVQLVESGGGLVQAGGSLRLSCAASGITLDRYAMGWYRQAPGKERELVAAISRSTTSTYYADSVKGRFTISRDNAKNTVYLQMNSLKREDTAVYYCATRTYRVDPEYGYWGQGTQVTVSS”, “high polyreactivity”.
